B1: Transmembrane protease serine 6 (Homo sapiens), Q8IU80 (parent)
chain: MLLLFHSKRMPVAEAPQVAGGQGDGGDGEEAEPEGMFKACEDSKRKARGYLRLVPLFVLLALLVLASAGVLLWYFLGYKAEVMVSQVYSGSLRVLNRHFSQDLTRRESSAFRSETAKAQKMLKELITSTRLGTYYNSSSVYSFGEGPLTCFFWFILQIPEHRRLMLSPEVVQALLVEELLSTVNSSAAVPYRAEYEVDPEGLVILEASVKDIAALNSTLGCYRYSYVGQGQVLRLKGPDHLASSCLWHLQGPKDLMLKLRLEWTLAECRDRLAMYDVAGPLEKRLITSVYGCSRQEPVVEVLASGAIMAVVWKKGLHSYYDPFVLSVQPVVFQACEVNLTLDNRLDSQGVLSTPYFPSYYSPQTHCSWHLTVPSLDYGLALWFDAYALRRQKYDLPCTQGQWTIQNRRLCGLRILQPYAERIPVVATAGITINFTSQISLTGPGVRVHYGLYNQSDPCPGEFLCSVNGLCVPACDGVKDCPNGLDERNCVCRATFQCKEDSTCISLPKVCDGQPDCLNGSDEEQCQEGVPCGTFTFQCEDRSCVKKPNPQCDGRPDCRDGSDEEHCDCGLQGPSSRIVGGAVSSEGEWPWQASLQVRGRHICGGALIADRWVITAAHCFQEDSMASTVLWTVFLGKVWQNSRWPGEVSFKVSRLLLHPYHEEDSHDYDVALLQLDHPVVRSAAVRPVCLPARSHFFEPGLHCWITGWGALREGGPISNALQKVDVQLIPQDLCSEVYRYQVTPRMLCAGYRKGKKDACQGDSGGPLVCKALSGRWFLAGLVSWGLGCGRPNYFGVYTRITGVISWIQQVVT
partner: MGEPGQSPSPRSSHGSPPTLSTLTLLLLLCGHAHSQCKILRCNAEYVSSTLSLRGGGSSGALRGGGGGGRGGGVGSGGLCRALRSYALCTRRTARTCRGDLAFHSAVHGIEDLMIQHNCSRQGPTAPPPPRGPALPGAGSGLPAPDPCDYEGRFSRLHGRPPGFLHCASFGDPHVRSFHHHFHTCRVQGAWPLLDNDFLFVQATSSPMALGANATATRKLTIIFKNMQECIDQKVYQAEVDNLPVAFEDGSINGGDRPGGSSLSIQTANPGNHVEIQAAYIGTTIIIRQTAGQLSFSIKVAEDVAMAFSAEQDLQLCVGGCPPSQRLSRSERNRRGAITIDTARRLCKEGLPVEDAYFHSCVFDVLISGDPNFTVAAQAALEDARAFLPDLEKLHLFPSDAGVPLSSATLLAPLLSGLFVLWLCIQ

Variants of: B1
Details: with rgmc_human HJV

Row | Variant | effect of a mutation on the interaction
1 | Y141C | with no effect

Source: IntAct's records for PubMed 20704562
